Publication PMC3186789
Primed or numbered codes have the meaning given here. The star is where a group is joined. Dabcyl′ = CN(C)c1ccc(/N=N/c2ccc(C(=O)*)cc2)cc1; EDANS = O=S(=O)(O)c1cccc2c(NCCN*)cccc12

Biological target: T1, Group B Streptococcus recombinant sortase A SrtA_(ΔN40) (Streptococcus agalactiae strain 515 (serotype Ia)) (UniProt Q8DZY1)
T1 sequence: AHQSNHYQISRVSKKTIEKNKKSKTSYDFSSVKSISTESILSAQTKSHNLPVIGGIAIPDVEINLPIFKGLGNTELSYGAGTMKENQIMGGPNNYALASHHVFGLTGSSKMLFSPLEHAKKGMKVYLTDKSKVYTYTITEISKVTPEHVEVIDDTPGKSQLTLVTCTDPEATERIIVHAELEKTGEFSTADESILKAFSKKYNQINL

B1: AP2-2a peptide (Dabcyl-SFLPKTGM-Edans) (peptide)
peptide: {Dabcyl′}-SFLPKTGM-{EDANS}
SMILES: CSCC[C@H](NC(=O)CNC(=O)[C@@H](NC(=O)[C@H](CCCCN)NC(=O)[C@@H]1CCCN1C(=O)[C@H](CC(C)C)NC(=O)[C@H](Cc1ccccc1)NC(=O)[C@H](CO)NC(=O)c1ccc(/N=N/c2ccc(N(C)C)cc2)cc1)[C@@H](C)O)C(=O)NCCNc1cccc2c(S(=O)(=O)O)cccc12
Q: B1 was tested. Which apparent Michaelis constant K (m,app) of the transpeptidation reaction (FRET assay, 1-384 µM peptide, 3 µM SrtA (ΔN40), 75 mM triglycine, 37°C, 20 mM HEPES pH 7.5) did it give?
A: Its apparent Michaelis constant K (m,app) of the transpeptidation reaction (FRET assay, 1-384 µM peptide, 3 µM SrtA (ΔN40), 75 mM triglycine, 37°C, 20 mM HEPES pH 7.5) is 48.4 µM.
